Patent publication US20140031294A1 (NOVOZYMES BIOPHARMA UK, published 2014)

Target: transferrin receptor on human erythroleukemic K562 cells (human, UniProt P02786 1-760)
Test: cell-based or functional assay

Chain of transferrin receptor on human erythroleukemic K562 cells (P02786 whole entry): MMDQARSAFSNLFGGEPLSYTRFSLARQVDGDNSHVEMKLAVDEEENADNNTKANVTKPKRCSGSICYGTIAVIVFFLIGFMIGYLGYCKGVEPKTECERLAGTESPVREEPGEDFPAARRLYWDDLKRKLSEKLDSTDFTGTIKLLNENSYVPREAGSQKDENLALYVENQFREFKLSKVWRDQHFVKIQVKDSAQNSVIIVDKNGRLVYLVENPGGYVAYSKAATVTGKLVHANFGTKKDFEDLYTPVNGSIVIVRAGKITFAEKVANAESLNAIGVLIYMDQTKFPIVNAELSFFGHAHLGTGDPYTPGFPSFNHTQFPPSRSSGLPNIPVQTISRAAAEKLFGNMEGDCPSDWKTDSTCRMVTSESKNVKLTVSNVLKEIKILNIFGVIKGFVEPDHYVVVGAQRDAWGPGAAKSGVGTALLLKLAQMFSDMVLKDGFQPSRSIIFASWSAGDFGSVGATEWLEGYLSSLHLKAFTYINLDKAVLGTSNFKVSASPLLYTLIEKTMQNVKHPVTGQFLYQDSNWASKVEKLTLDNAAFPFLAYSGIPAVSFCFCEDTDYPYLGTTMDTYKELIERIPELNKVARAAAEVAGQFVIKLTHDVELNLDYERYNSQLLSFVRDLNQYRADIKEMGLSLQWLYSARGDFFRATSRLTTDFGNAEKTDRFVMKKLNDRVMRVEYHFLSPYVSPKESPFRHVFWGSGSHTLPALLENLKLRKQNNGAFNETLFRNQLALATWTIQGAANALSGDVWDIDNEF

B1: recombinant transferrin (N413Q, N611Q) (ligand)
chain: VPDKTVRWCAVSEHEATKCQSFRDHMKSVIPSDGPSVACVKKASYLDCIRAIAANEADAVTLDAGLVYDAYLAPNNLKPVVAEFYGSKEDPQTFYYAVAVVKKDSGFQMNQLRGKKSCHTGLGRSAGWNIPIGLLYCDLPEPRKPLEKAVANFFSGSCAPCADGTDFPQLCQLCPGCGCSTLNQYFGYSGAFKCLKDGAGDVAFVKHSTIFENLANKADRDQYELLCLDNTRKPVDEYKDCHLAQVPSHTVVARSMGGKEDLIWELLNQAQEHFGKDKSKEFQLFSSPHGKDLLFKDSAHGFLKVPPRMDAKMYLGYEYVTAIRNLREGTCPEAPTDECKPVKWCALSHHERLKCDEWSVNSVGKIECVSAETTEDCIAKIMNGEADAMSLDGGFVYIAGKCGLVPVLAENYQKSDNCEDTPEAGYFAVAVVKKSASDLTWDNLKGKKSCHTAVGRTAGWNIPMGLLYNKINHCRFDEFFSEGCAPGSKKDSSLCKLCMGSGLNLCEPNNKEGYYGYTGAFRCLVEKGDVAFVKHQTVPQNTGGKNPDPWAKNLNEKDYELLCLDGTRKPVEEYANCHLARAPNHAVVTRKDKEACVHKILRQQQHLFGSQVTDCSGNFCLFRSETKDLLFRDDTVCLAKLHDRNTYEKYLGEEYVKAVGNLRKCSTSSLLEACTFRRP
Apparent Affinity (competition against 55Fe uptake from labelled plasma transferrin by K562 cells): 123 nM
